Measured values from US20160017053A1 (IMMUNOGEN, published 2016).
Each block holds one molecule with its values, some of them ahead of it.

What was measured:
[1] = biological target: human EGFR (epidermal growth factor receptor) (human) (UniProt P00533); experiment: flow cytometry, binding curve of the biotinylated ligand on MDA-MB468 cells
[2] = biological target: T1, human EGFR (epidermal growth factor receptor) (human, UniProt P00533 25-1210); experiment: cell-based or functional assay
[3] = biological target: T1, human EGFR (epidermal growth factor …); experiment: flow cytometry on MDA-MB468 or A431 cells; EC50 of the curve taken as apparent Kd
[4] = biological target: T1, human EGFR (epidermal growth factor …); experiment: flow cytometry on MDA-MB468 cells, apparent Kd from non-linear regression of geo mean fluorescence against [Ab] (M)
[5] = biological target: T1, human EGFR (epidermal growth factor …); experiment: flow cytometry on MDA-MB468 cells

Molecule: biotinylated EGF (Invitrogen) (ligand)
- EC50 [1]: 1.8 nM

B1: chimeric ML66-SMCC-DM1 (antibody, V domains shown)
VH: QVQLKESGPGLVQPSQTLSLTCTVSGLSLASNSVSWIRQPPGKGLEWMGVIWNHGGTDYNSVIKSRLSISRDTSKSQVFLKMNSLQTEDTAMYFCVRKGGIYFDYWGQGVMVTVSS
VL: DTVLTQSPALAVSPGERVTISCRASESVSTLMHWYQQKSGQQPKLLIYLASHRESGVPARFSGSGSGTDFTLTIDPMEADDTATYYCQQSRNDPWTFGGGTNLELK
modifications: Maytansinoid DM1 is linked to the antibody through the non-cleavable SMCC linker. The attachment sites and drug load for chML66 are not stated, and the letters cannot carry them.
- EC50 of cytotoxicity on KB cells with 1 µM naked chML66 antibody blocking [2]: 30 nM
- EC50 of cytotoxicity on KB cells without blocking antibody [2]: 3 nM

B3: huML66-SMCC-DM1 conjugate (antibody, human IgG1, kappa, V domains shown)
VH: QVQLQESGPGLVKPSETLSLTCTVSGLSLASNSVSWIRQPPGKGLEWMGVIWNHGGTDYNPSIKSRLSISRDTSKSQVFLKMNSLTAADTAMYFCVRKGGIYFDYWGQGVLVTVSS
VL: DTVLTQSPSLAVSPGERATISCRASESVSTLMHWYQQKPGQQPKLLIYLASHRESGVPARFSGSGSGTDFTLTIDPMEAEDTATYYCQQSRNDPWTFGQGTKLELKR
modifications: DM1 linked through SMCC; sites not stated; DM1 linked through SMCC; 3.5-4 DM1 molecules per antibody; sites not stated
- Kd [3]: 2.33 nM

The next lines start with results.

- Kd [3]: 1.12 nM
- Kd [4]: 1.23 nM
- EC50 (read off the curve) [5]: ~1 nM
B2: humanized ML66 (huML66) antibody (antibody, human IgG1, kappa, V domains shown)
VH: QVQLQESGPGLVKPSETLSLTCTVSGLSLASNSVSWIRQPPGKGLEWMGVIWNHGGTDYNPSIKSRLSISRDTSKSQVFLKMNSLTAADTAMYFCVRKGGIYFDYWGQGVLVTVSS
VL: DTVLTQSPSLAVSPGERATISCRASESVSTLMHWYQQKPGQQPKLLIYLASHRESGVPARFSGSGSGTDFTLTIDPMEAEDTATYYCQQSRNDPWTFGQGTKLELKR

- Kd [3]: 2.93 nM
B4: huML66-SPDB-DM4 conjugate (antibody, human IgG1, kappa, V domains shown)
VH: QVQLQESGPGLVKPSETLSLTCTVSGLSLASNSVSWIRQPPGKGLEWMGVIWNHGGTDYNPSIKSRLSISRDTSKSQVFLKMNSLTAADTAMYFCVRKGGIYFDYWGQGVLVTVSS
VL: DTVLTQSPSLAVSPGERATISCRASESVSTLMHWYQQKPGQQPKLLIYLASHRESGVPARFSGSGSGTDFTLTIDPMEAEDTATYYCQQSRNDPWTFGQGTKLELKR
modifications: DM4 linked through SPDB; sites not stated; DM4 linked through SPDB; 3.5-4 DM4 molecules per antibody; sites not stated

- Kd [4]: 1.94 nM
- EC50 (read off the curve) [5]: ~2 nM
B5: rat ML66 antibody (antibody, V domains shown)
VH: QVQLKESGPGLVQPSQTLSLTCTVSGLSLASNSVSWIRQPPGKGLEWMGVIWNHGGTDYNSVIKSRLSISRDTSKSQVFLKMNSLQTEDTAMYFCVRKGGIYFDYWGQGVMVTVSS
VL: DTVLTQSPALAVSPGERVTISCRASESVSTLMHWYQQKSGQQPKLLIYLASHRESGVPARFSGSGSGTDFTLTIDPMEADDTATYYCQQSRNDPWTFGGGTNLELKR
notes: Rat monoclonal antibody purified from hybridoma

- Kd [3]: 4.54 nM
B6: muEGFR-8-SMCC-DM1 conjugate (antibody, V domains shown)
VH: EVQLQQSGAELVKPGASVKLSCTTSGFNIKDTYIHWVKKRPEQGLEWIGRIDPTNGNNKYDPKFQGKATITADTSSNTAYLQLSSLTSEDTAVYYCTREDGYRYDDWYFDVWGAGTTVTVSS
VL: QIVLTQSPASMSASPGEKVTMTCSASSSVSYMHWYQQKSGTSPKRWIYATSKLASGVPARFSGSGSGTSYSLTISSMEAEDAATYYCQQWSSNPLTFGAGTKLELKR
modifications: DM1 linked through SMCC to the antibody; drug load and sites not stated
notes: Maytansinoid conjugate of the whole murine EGFR-8 antibody; its preparation is not described separately
- EC50 of in vitro cytotoxicity on NCI-H226 cells (WST-8) [2]: 0.68 nM
- EC50 of in vitro cytotoxicity on NCI-H292 cells (WST-8) [2]: 0.43 nM
- EC50 of in vitro cytotoxicity on NCI-H322M cells (WST-8) [2]: 3.07 nM

- Kd [3]: 1.43 nM
B7: murine EGFR-8 antibody (antibody, V domains shown)
VH: EVQLQQSGAELVKPGASVKLSCTTSGFNIKDTYIHWVKKRPEQGLEWIGRIDPTNGNNKYDPKFQGKATITADTSSNTAYLQLSSLTSEDTAVYYCTREDGYRYDDWYFDVWGAGTTVTVSS
VL: QIVLTQSPASMSASPGEKVTMTCSASSSVSYMHWYQQKSGTSPKRWIYATSKLASGVPARFSGSGSGTSYSLTISSMEAEDAATYYCQQWSSNPLTFGAGTKLELKR
notes: Mouse monoclonal antibody purified from hybridoma; also called muEGFR-8
